Results: article PMC2829314

Molecular target: LRRTM2-mVenus (full-length LRRTM2 mVenus-fusion protein) (UniProt O43300)
Experiment: saturation binding to cells

Sequence of UniProt O43300 (O43300 34-516): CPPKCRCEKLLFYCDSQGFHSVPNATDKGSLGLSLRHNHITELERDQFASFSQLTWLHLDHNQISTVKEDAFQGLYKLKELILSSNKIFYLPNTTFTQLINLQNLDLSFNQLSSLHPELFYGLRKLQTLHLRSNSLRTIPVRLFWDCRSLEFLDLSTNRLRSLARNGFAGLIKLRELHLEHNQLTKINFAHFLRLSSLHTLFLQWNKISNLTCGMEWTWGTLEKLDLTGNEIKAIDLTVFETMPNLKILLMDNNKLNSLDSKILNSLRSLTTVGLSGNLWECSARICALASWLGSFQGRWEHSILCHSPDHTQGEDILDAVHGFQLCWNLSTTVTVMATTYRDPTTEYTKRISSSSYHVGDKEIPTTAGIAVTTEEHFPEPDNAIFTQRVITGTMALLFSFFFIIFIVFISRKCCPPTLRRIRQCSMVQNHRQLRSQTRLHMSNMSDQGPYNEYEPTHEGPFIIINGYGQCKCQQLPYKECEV

## IgNrx1β^SS4− (Ig-fusion protein of neurexin-1β lacking an insert in splice site #4) (Fc fusion)
  Kd: 5.83 nM
